T1: human podocalyxin (human, UniProt O00592 23-558)
T1 construct: also called hPodo; hPodocalyxin
T1 sequence: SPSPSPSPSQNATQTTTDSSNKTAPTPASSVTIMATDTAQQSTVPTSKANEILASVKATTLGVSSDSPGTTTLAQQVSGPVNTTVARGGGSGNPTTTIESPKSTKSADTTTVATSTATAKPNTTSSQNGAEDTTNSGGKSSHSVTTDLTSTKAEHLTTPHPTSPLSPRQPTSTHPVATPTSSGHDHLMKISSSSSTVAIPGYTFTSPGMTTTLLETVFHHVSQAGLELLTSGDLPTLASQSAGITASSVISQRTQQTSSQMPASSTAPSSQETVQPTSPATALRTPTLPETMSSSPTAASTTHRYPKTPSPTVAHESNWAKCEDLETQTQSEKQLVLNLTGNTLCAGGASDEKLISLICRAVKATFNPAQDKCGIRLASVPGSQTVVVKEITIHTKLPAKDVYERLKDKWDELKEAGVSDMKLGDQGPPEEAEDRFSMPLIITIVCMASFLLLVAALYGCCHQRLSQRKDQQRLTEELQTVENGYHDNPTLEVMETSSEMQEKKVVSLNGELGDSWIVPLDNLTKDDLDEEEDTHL


Legend:
human podocalyxin [1] = target: T1, human podocalyxin; test: cross competition FACS, MDA-MB-231 cells; row antibody unlabelled 25 ug/mL first; competitor (detected): biotinylated Rb/Hu Podo83 5 ug/mL
human podocalyxin [2] = target: T1, human podocalyxin; test: cross competition FACS, MDA-MB-231 cells; row antibody unlabelled 25 ug/mL first; competitor (detected): B-3G2.2 5 ug/mL
human podocalyxin [3] = target: T1, human podocalyxin; test: cross competition FACS, MDA-MB-231 cells; row antibody unlabelled 25 ug/mL first; competitor (detected): B-mlgG1 5 ug/mL (control)
human podocalyxin [4] = target: T1, human podocalyxin; test: cross competition FACS, MDA-MB-231 cells; row antibody unlabelled 25 ug/mL first; competitor (detected): B-Ova 12 5 ug/mL (control)
human podocalyxin [5] = target: T1, human podocalyxin; test: FACS, isotype control, hPodo/MDA (MDA-MB-231 cells transfected with human Podocalyxin cDNA)
human podocalyxin [6] = target: T1, human podocalyxin; test: kinetic exclusion assay (KinExA 3200), MDA-MB-231 cells
Method: The concentration dependence of free anti-podocalyxin antibody as a function of MDA-MB231 cell number was determined using a KinExA 3200 instrument (Sapidyne Instruments). Briefly, MDA-MB-231 cells, which express endogenous podocalyxin, were titrated 1:2 from 10×10⁶ cells/mL down 12 steps, and incubated with a fixed concentration of anti-podocalyxin antibodies. MDA-MB231 cells and cell bound antibodies were then isolated by centrifugation. Supernatant containing free, unbound antibody was then transferred to a new tube. The supernatant containing free unbound antibody was passed over the column containing PMMA beads coated with a goat anti-IgG-Fc capture antibody. The amount of free antibody captured on the PMMA beads was then measured using a goat anti-IgG-Fc-A647. This process was repeated for every cell concentration. For each sample assayed a new column of PMMA beads with the goat anti-IgG-Fc capture antibody was packed. The concentration of free antibody over the entire 12 step dilution series was then used to determine the antibody Kd's using the standard Kd template in the KineExA Pro Software (Sapidyne Instruments).

human podocalyxin [7] = target: T1, human podocalyxin; test: flow cytometry, supernatant 1:125, hPodo/MDA-MB-231 transient transfectants
Method: (§1) The following antibodies were transiently transfected in 293HEK cells, transfected cells were incubated for 96 hours, antibody containing supernatant was then serially titrated in FACS sample buffer. The following supernatants were used as test samples:
(§2) MDA transient transfectants were established as essentially described above in Example 1. MDA transient transfectants and MDA-MB-231 cells were seeded in 96-well v bottom plates at 75,000 cells/well. Cells were pelleted by centrifugation at 400 g for 3 min. Supernatant was removed. The cell pellets were resuspended in 20 μl of the antibody or control supernatants. The plate was incubated on ice for 1 hour.
(§3) The cells were washed by adding 200 μl FACS buffer to dilute unbound antibody. The plate was centrifuged at 400 g for 3 min to pellet cells. The supernatant was removed and repeated. The cell pellets were resuspended in 25 μl of either goat anti-Hu IgG Fc-Alexa647, goat anti-Mouse IgG Fc-Alexa647, or goat anti-rabbit IgG0Fc-A647 (2 μg/ml) and 7A.A.D (2.5 μg/ml). The plates were incubated on ice for 0.5 hours. The wash procedure was again repeated 2×. The cell pellets were finally resuspended in 75 μl FACS buffer and read on the HTFC™ Screening System (IntelliCyt Corporation) (3 sec sip, 1.5 up time) and analyzed on the HyperView® software (IntelliCyt Corporation).

human podocalyxin [8] = target: T1, human podocalyxin; test: flow cytometry, supernatant 1:5, MDA-MB-231 cells
Method: as §1, §2, §3

human podocalyxin [9] = target: T1, human podocalyxin; test: flow cytometry, supernatant 2:15 (so in the source), MDA-MB-231 cells
Method: as §1, §2, §3

human podocalyxin [10] = target: T1, human podocalyxin; test: flow cytometry titration on 293-6E cells (endogenous podocalyxin), 24 hours at 4 C
Method: (§4) The affinities of huPodo 83 1:1 and huPodo 83 2:1 antibodies were determined against endogenously expressed podocalyxin on 293 HEK cells. 293-6E cells were seeded in 96-well v bottom plates at 100,000 cells/well. The cells were pelleted at 400 g for 3 min and the supernatant was discarded. The cells were placed on ice and antibody 1:3 titrations were prepared using ice cold medium. The cells were resuspended in the prepared antibody titrations at 25 μl/well and incubated at 4° C. for either 24 or 48 hours. 200 μl 1% FBS/PGS (FACS buffer) was added to each well. The cells were pelleted at 400 g for 3 min and supernatant removed. The wash was repeated 2 more times. The cells were resuspended in goat anti-human IgGFc-A647 (2 μg/ml)+2.5 μg/ml 7AAD and incubated on ice for 30 min. The cells were washed as above and resuspended in 50 μl FACS buffer. The cells were analyzed by flow cytometry using the HTFC™ Screening System (IntelliCyt Corporation) (3 sec sip, 1.5 sec up) and the C6 cytometer (Becton Dickenson).

human podocalyxin [11] = target: T1, human podocalyxin; test: flow cytometry, supernatant 2:15 (so in the source), hPodo/MDA-MB-231 transient transfectants
Method: as §1, §2, §3

human podocalyxin [12] = target: T1, human podocalyxin; test: flow cytometry, supernatant Neat, hPodo/MDA-MB-231 transient transfectants
Method: as §1, §2, §3

human podocalyxin [13] = target: T1, human podocalyxin; test: flow cytometry, supernatant Neat, MDA-MB-231 cells
Method: as §1, §2, §3

human podocalyxin [14] = target: T1, human podocalyxin; test: flow cytometry titration on 293-6E cells (endogenous podocalyxin), 48 hours at 4 C
Method: as §4

human podocalyxin [15] = target: T1, human podocalyxin; test: flow cytometry, supernatant 1:5, hPodo/MDA-MB-231 transient transfectants
Method: as §1, §2, §3

human podocalyxin [16] = target: T1, human podocalyxin; test: flow cytometry, supernatant 1:125, MDA-MB-231 cells
Method: as §1, §2, §3

Molecule	flow cytometry fluorescence (name not given) (human podocalyxin [7])	flow cytometry fluorescence (name not given) (human podocalyxin [8])	flow cytometry fluorescence (name not given) (human podocalyxin [9])	flow cytometry fluorescence (name not given) (human podocalyxin [11])	flow cytometry fluorescence (name not given) (human podocalyxin [12])	flow cytometry fluorescence (name not given) (human podocalyxin [13])	flow cytometry fluorescence (name not given) (human podocalyxin [15])	flow cytometry fluorescence (name not given) (human podocalyxin [16])	also measured
3D3 (Santa Cruz Biotechnology sc23904) (antibody)	–	–	–	–	–	–	–	–	FACS signal of the biotinylated antibody named under assay (human podocalyxin [1]): 135000; FACS signal of the biotinylated antibody named under assay (human podocalyxin [2]): 26400; FACS signal of the biotinylated antibody named under assay (human podocalyxin [3]): 419; FACS signal of the biotinylated antibody named under assay (human podocalyxin [4]): 450
hlgG1 (antibody)	–	–	–	–	–	–	–	–	FACS signal (name not given) (human podocalyxin [5]): 544
MAB1658 (R&D Systems) (antibody)	–	–	–	–	–	–	–	–	FACS signal of the biotinylated antibody named under assay (human podocalyxin [1]): 127000; FACS signal of the biotinylated antibody named under assay (human podocalyxin [2]): 26900; FACS signal of the biotinylated antibody named under assay (human podocalyxin [3]): 431; FACS signal of the biotinylated antibody named under assay (human podocalyxin [4]): 476
hlgG2 (antibody)	–	–	–	–	–	–	–	–	FACS signal (name not given) (human podocalyxin [5]): 533
mouse anti-podocalyxin antibody 3G2 (Ab-2) (antibody, V domains shown, also called 3G2.2; Podo-3G2.2) VH: EVQLQQSGPELVKPGASVKMSCKASGYTFTSYVMHWVKQKPGQGLEWIGYIHPYNDGTNYNEKFKGKATLTSDKSSNTAYMELSSLTSEDSAVYYCARSWDWYFDVWGAGTTVTVSS VL: QIVLTQSPAIMSASPGEKVTMTCSANSNVRYIHWHQQKSGTSPKRWIYDTSKLSSGVPARFSGSGSGTSYSLTISNMEAEDAATYYCQQWISNPLTFGAGTKLELK	–	–	–	–	–	–	–	–	Kd (human podocalyxin [6]): 3.34 nM
huPodo 83 1:1 (humanized anti-podocalyxin antibody 83, version 1) (antibody, V domains shown, Cloned into pTT5 plasmids with human IgG heavy chain and human Ig kappa constant regions) VH: EVQLVESGGGLVQPGGSLRLSCAASGIDLSSYAMGWVRQAPGKGLEWVSFIYASGSIFYASWAKGRFTISRDNSKNTLYLQMNSLRAEDTAVYYCARAGYYFGGNYDLNLWGQGTLVTVSS VL: DIQMTQSPSSLSASVGDRVTITCQASQSISNYLAWYQQKPGKVPKLLIYRASTLASGVPSRFSGSGSGTDFTLTISSLQPEDVATYYCQQGYVSNNLDNIFGGGTEVVVK	61600	112000	91500	157000	124000	125000	128000	39400	IC50 (human podocalyxin [10]): 0.0331 µg/mL; IC50 (human podocalyxin [14]): 0.0355 µg/mL; Kd (human podocalyxin [6]): 0.26 nM
Rb VH, Vk 1:1 (Podo 83 rabbit VH, human CH1-CH3, human Ck, and humanized Vk) (antibody, V domains shown, Human CH1-CH3 and human Ck) VH: QSLAESGGRLVTPGTPLTLTCTASGIDLSSYAMGWVRQAPGKGLEYIGFIYASGSIFYASWAKGRFTISKTSSTTVDLKMTSLTTEDTATYFCARAGYYFGGNYDLNLWGQGTLVTVSS VL: DIQMTQSPSSLSASVGDRVTITCQASQSISNYLAWYQQKPGKVPKLLIYRASTLASGVPSRFSGSGSGTDFTLTISSLQPEDVATYYCQQGYVSNNLDNIFGGGTEVVVK	74500	115000	94800	76400	137000	130000	124000	47700	–
huPodo 83 2:1 (humanized anti-podocalyxin antibody 83, version 2) (antibody, V domains shown, Cloned into pTT5 plasmids with human IgG heavy chain and human Ig kappa constant regions) VH: EVQLVESGGGLVQPGGSLRLSCAASGIDLSSYAMGWVRQAPGKGLEWVSFIYASGSIFYASWAKGRFTISRDNSNTLYLQMNSLRAEDTAVYYCARAGYYFGGNYDLNLWGQGTLVTVSS VL: DIQMTQSPSSLSASVGDRVTITCQASQSISNYLAWYQQKPGKVPKLLIYRASTLASGVPSRFSGSGSGTDFTLTISSLQPEDVATYYCQQGYVSNNLDNIFGGGTEVVVK	37700	105000	67200	79400	139000	123000	108000	22300	IC50 (human podocalyxin [10]): 0.0519 µg/mL; IC50 (human podocalyxin [14]): 0.052 µg/mL
Rabbit Podo 83 (Parental rabbit antibody) (antibody, V domains shown, Rabbit constant regions; also called Rb Podo 83 (Rb Constant Region); rabbit Podo-83 (Ab-1)) VH: QSLAESGGRLVTPGTPLTLTCTASGIDLSSYAMGWVRQAPGKGLEYIGFIYASGSIFYASWAKGRFTISKTSSTTVDLKMTSLTTEDTATYFCARAGYYFGGNYDLNLWGQGTLVTVSS VL: DIVLTQTPASVEVAVGGTVTIKCQASQSISNYLAWYQRKPGQPPRLLIYRASTLASGVSSRFKGSGSGTQFTLTISGVECADAATYYCQQGYVSNNLDNIFGGGTEVVVK	24100	129000	53700	89700	90800	179000	139000	15500	–

Source: patent US20190367606A1 (CENTRE FOR DRUG RESEARCH AND DEVELOPMENT, published 2019)
